Assay results: US20140134176A1 (Pfizer, published 2014)

B1: MOR8457-GL-hIgG1-3m (antibody, V domains shown)
VH: EVQLLESGGGLVQPGGSLRLSCAASGFTFSSYAMSWVRQAPGKGLEWVSYISDDGSLKYYADSVKGRFTISRDNSKNTLYLQMNSLRAEDTAVYYCAKHPYWYGGQLDLWGQGTLVTVSS
VL: SYELTQPPSVSVSPGQTASITCSGDSLGSYFVHWYQQKPGQSPVLVIYDDSNRPSGIPERFSGSNSGNTATLTISGTQAMDEADYYCSAFTHNSDVFGGGTKLTVLG
notes: Germlined VH and VL, human IgG1-3m, wild type human lambda
B2: MOR8457-16 (antibody, human IgG1, lambda, V domains shown)
VH: EVQLLQSGGGLVKPGGSLRLSCAASGFTFSSYAMSWVRQAPGKGLEWVSYISDDGSLKYYADSVKGRFTISRDNSKNTLYLQMNSLRAEDTAVYYCARHPYWYGGQLDLWGQGTLVTVSS
VL: SYELTQPPSVSVSPGQTASITCSGDSLGSYFVHWYQQKPGQSPVLVIYDDSKRPSGIPERFSGSNSGNTATLTISGTQAMDEADYYCSAFTHNSDVFGGGTKLTVLG
notes: Engineered variant of MOR8457-GL: heavy E6Q, Q13K; light N53K (Kabat); human IgG1-3m; also called MOR8547-16
B3: MOR8457-IKR-hIgG1-3m (antibody)
heavy: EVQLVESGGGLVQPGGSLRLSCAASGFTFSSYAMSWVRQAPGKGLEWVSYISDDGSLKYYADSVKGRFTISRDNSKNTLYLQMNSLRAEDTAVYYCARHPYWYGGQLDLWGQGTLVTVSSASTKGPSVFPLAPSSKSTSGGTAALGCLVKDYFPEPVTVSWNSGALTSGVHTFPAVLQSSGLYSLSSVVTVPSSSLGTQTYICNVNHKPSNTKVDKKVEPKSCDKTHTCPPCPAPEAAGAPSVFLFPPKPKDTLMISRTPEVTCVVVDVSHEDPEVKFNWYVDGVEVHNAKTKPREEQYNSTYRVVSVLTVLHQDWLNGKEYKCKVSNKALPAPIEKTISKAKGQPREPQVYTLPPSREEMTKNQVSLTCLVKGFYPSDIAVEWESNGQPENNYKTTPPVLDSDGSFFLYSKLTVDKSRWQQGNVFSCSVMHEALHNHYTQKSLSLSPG
light: SYELTQPPSVSVAPGQTARISCSGDSLGSYFVHWYQQKPGQAPVLVIYDDSNRPSGIPERFSGSNSGNTATLTISGTQAEDEADYYCSAFTHNSDVFGGGTKLTIKRQPKAAPSVTLFPPSSEELQANKATLVCLISDFYPGAVTVAWKADSSPVKAGVETTTPSKQSNNKYAASSYLSLTPEQWKSHRSYSCQVTHEGSTVEKTVAPTECS
notes: also called MOR8457-IKR-IgG1-3m

Key:
[1] = target: T1, human PDGF-BB (human, UniProt P01127 82-190); assay: SPR (Biacore 2000), antibody captured via anti-human IgG, PDGF injected
T1 construct: Recombinant human PDGF-BB homodimer, bought (Biosource PHG0043; R&D Systems); also called hPDGF-BB; huBB
T1 sequence (P01127 82-190 limits assumed): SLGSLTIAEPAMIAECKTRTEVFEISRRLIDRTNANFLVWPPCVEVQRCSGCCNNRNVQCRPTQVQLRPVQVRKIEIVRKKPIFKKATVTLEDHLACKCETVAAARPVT
Procedure: (§1) Anti-human (A-D, I-K) or anti-mouse (E-H) IgG antibodies were immobilized in flow cells of CM5 sensor chips. 1 μg/mL of MOR8457-IKR-hIgG1-3m (A-D), MOR8457-mIgG1 (E-H) or MOR8457-GL-hIgG1-3m (I-K) was injected independently over the respective anti-human or anti-mouse surface for 10 seconds resulting in a stable anti-PDGF surface between 50-100 RU. Different concentration of PDGF proteins, 0.25, 0.5, and 1 nM, was then injected over the antibody surface for 2 minutes at a flow rate of 100 μl/min for binding. The complex was allowed to dissociate for 10 minutes. The surface was regenerated with a 30 second injection of 10 mM magnesium chloride leaving the surface ready for another round of anti-PDGF antibody capture and PDGF binding kinetics. Each of these three antibodies bound tightly to human (A, E, I), mouse (B, F, J) and rat (C, G, K) PDGF-BB. MOR8457-IKR-hIgG1-3m (D) and MOR8457-mIgG1 (H) bound to human PDGF-AB. Each sensorgram shown is one representative of three independent experiments.
(§2) In order to test the specificity and cross species reactivity, the binding affinities of three MOR8457 IgG variants, MOR8457-IKR-hIgG1-3m, MOR8457-mIgG1, and MOR8457-GL-hIgG1-3m, to different human PDGF ligands, including human PDGF-AA, -AB, -DD, as well as rat PDGF-BB (all obtained from R&D systems, Minneapolis, Minn.) and mouse PDGF-BB (Invitrogen, Carlsbad, Calif.) were tested. Briefly, anti-human or anti-mouse IgG (GE Healthcare) antibodies were immobilized in adjacent flow cells of a CM5 sensor chip between 8000-10,000 resonance units (RU) using amine coupling as directed by the manufacturer. Antibodies were diluted into PBS-NET (10 mM Phosphate pH 7.4, 287 mM NaCl, 2.7 mM KCl, 3.2 mM EDTA, 0.01% Tween 20) to 1 μg/mL and injected independently over the respective anti-human or anti-mouse surface for 10 seconds resulting in a stable anti-PDGF surface between 50-100 RU. PDGF proteins were diluted to 1 nM in PBS-NET and serially diluted two-fold to 0.25 nM. Each concentration of PDGF was then injected over the antibody surface for 2 minutes at a flow rate of 100 μl/min. The complex was allowed to dissociate for 10 minutes. The surface was regenerated with a 30 second injection of 10 mM magnesium chloride leaving the surface ready for another round of anti-PDGF antibody capture and PDGF binding kinetics.

[2] = target: T2, mouse PDGF-BB (mouse, UniProt P31240 82-190); assay: as above
T2 construct: also called muBB; Mu PDGF-BB
T2 sequence (P31240 82-190 limits assumed): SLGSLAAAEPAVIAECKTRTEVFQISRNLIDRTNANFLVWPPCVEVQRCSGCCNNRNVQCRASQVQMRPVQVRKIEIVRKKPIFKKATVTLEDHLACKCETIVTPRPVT
Procedure: as §1, §2

[3] = target: T3, rat PDGF-BB (rat, UniProt Q05028 74-182); assay: as above
T3 construct: also called ratBB
T3 sequence (Q05028 74-182 limits assumed): as the sequence (P31240 82-190 limits assumed) above, with I83V, I102V counted along it
Procedure: as §1, §2

[4] = target: T1, human PDGF-BB; assay: cell-based or functional assay
[5] = target: T4, human PDGF-AB (human, UniProt P04085 87-211, limits assumed); assay: SPR (Biacore 3000), antibody captured via anti-human IgG, PDGF injected
T4 construct: Heterodimer of PDGF-A and PDGF-B, bought; also called huAB; Hu PDGF-AB
T4 sequence (chain, as listed by the source limits assumed, chain 2 of 2, other chains not shown): as the sequence (P01127 82-190 limits assumed) above
Procedure: (§3) FIG. 20, comprising panels A through D, depicts Biacore sensorgrams showing the binding kinetics of MOR8457-16 to different PDGF isoforms. MOR8457-16 was captured onto CM5 chips using an anti-human IgG antibody. The binding kinetics of each PDGF isoform was assessed by flowing different concentrations of each PDGF isoform over the captured MOR8457-16 surface. The concentrations of Hu-PDGF-BB (A) and Mu-PDGF-BB (C) were 0.25, 0.5, and 1 nM, and the concentrations for Hu-PDGF-AB (B) and Rat-PDGF-BB (D) were 0.5 and 1 nM. Each sensorgram is one representative of two independent experiments. Kinetics data were double referenced and fit using Biacore evaluation software version 4.1.
(§4) The binding affinities of MOR8457-16 to different PDGF isoforms were determined as previously described (Example 6) using a Biacore 3000 (GE Healthcare, Piscataway N.J.). Briefly, an anti-human IgG (GE Healthcare) antibody was immobilized in flow cells of a CM5 sensor chip between 8,000-10,000 resonance units (RU) using amine coupling as directed by the manufacturer. Test antibodies were diluted into PBS-NET (10 mM Phosphate pH 7.4, 287 mM NaCl, 2.7 mM KCl, 3.2 mM EDTA, 0.01% Tween-20) to 0.5 ug/mL and injected over the anti-human antibody surface for 30 seconds resulting in a stable anti-PDGF surface between 82-122 RU. PDGF proteins were diluted to 1 nM in PBS-NET and serially diluted two-fold to 0.25 nM. Each concentration of PDGF was then injected over the antibody surface for 2 minutes at a flow rate of 100 ul/min. The complex was allowed to dissociate for 10 minutes. The surface was regenerated with a 30 second injection of 3M magnesium chloride leaving the surface ready for another round of anti-PDGF antibody capture and PDGF binding kinetics. Kinetic data was double referenced (D. G. Myszka et al., J. Mol. Recognit. 12:279, 1999) using Scrubber2 software (Bio-Logic Software), then fit to a 1:1 binding model using Biacore evaluation software version 4.1. Protein concentrations of all PDGF isoforms were corrected with active concentrations determined under the condition of limiting mass transport (Karlsson et al., METHODS: A companion to Methods in Enzymology 6:99-110, 1994). Results shown were averages of two independent binding studies.

[6] = target: T1, human PDGF-BB; assay: as above
Procedure: as §3, §4

[7] = target: T2, mouse PDGF-BB; assay: as above
Procedure: as §3, §4

[8] = target: T3, rat PDGF-BB; assay: as above
Procedure: as §3, §4

[9] = target: T4, human PDGF-AB; assay: SPR (Biacore 2000), antibody captured via anti-human IgG, PDGF injected
Procedure: as §1, §2

[10] = target: human PDGF-DD (human, UniProt Q9GZP0 250-370, limits assumed); assay: SPR (Biacore), antibody captured
human PDGF-DD, sequence (Q9GZP0 250-370 limits assumed): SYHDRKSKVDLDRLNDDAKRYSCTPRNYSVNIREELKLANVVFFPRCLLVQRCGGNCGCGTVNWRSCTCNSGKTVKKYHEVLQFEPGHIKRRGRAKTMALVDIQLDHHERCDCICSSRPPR
Procedure: as §2, with “kinetics. Kinetic data were double referenced (Myszka et al., 1999, J. Mol. Recognit. 12 279) using scrubber2 software (Bio-Logic Software), then fit to a 1:1 binding model using Biacore evaluation software version 4.1. The results shown were an average of three independent binding studies.” for “kinetics.”

[11] = target: human PDGF-AA (human, UniProt P04085 87-211, limits assumed); assay: SPR (Biacore), antibody captured
Procedure: as §2, with “kinetics. Kinetic data were double referenced (Myszka et al., 1999, J. Mol. Recognit. 12 279) using scrubber2 software (Bio-Logic Software), then fit to a 1:1 binding model using Biacore evaluation software version 4.1. The results shown were an average of three independent binding studies.” for “kinetics.”

[12] = target: T4, human PDGF-AB; assay: SPR (Biacore)
Procedure: as §2, with “kinetics. […]” for “kinetics.”

Binder | Kd [1] | koff [1] | kon [1] | Kd [2] | koff [2] | kon [2] | Kd [3] | koff [3] | kon [3] | IC50, inhibition of PDGF-BB (2.5 ng/ml) stimulated mesangial cell proliferation [4] | also measured
B1 | 0.013 nM | 0.00019 s⁻¹ | 1.5e+07 M⁻¹ s⁻¹ | 0.004 nM | 0.0002 s⁻¹ | 5.3e+07 M⁻¹ s⁻¹ | 0.015 nM | 0.00024 s⁻¹ | 1.7e+07 M⁻¹ s⁻¹ | 0.02 nM | –
B2 | – | – | – | – | – | – | – | – | – | 0.014 nM | Kd [5]: ~0.00802 nM; koff [5]: < 1e-05 s⁻¹; kon [5]: 3.39e+06 M⁻¹ s⁻¹; Kd [6]: 0.00975 nM; koff [6]: 0.000169 s⁻¹; kon [6]: 1.73e+07 M⁻¹ s⁻¹; Kd [7]: 0.00862 nM; koff [7]: 0.00018 s⁻¹; kon [7]: 2.16e+07 M⁻¹ s⁻¹; Kd [8]: 0.00888 nM; koff [8]: 0.000114 s⁻¹; kon [8]: 1.29e+07 M⁻¹ s⁻¹
B3 | 0.028 nM | 0.000362 s⁻¹ | 1.27e+07 M⁻¹ s⁻¹ | 0.01 nM | 0.000293 s⁻¹ | 2.95e+07 M⁻¹ s⁻¹ | 0.025 nM | 0.000447 s⁻¹ | 1.77e+07 M⁻¹ s⁻¹ | – | Kd [9]: 0.069 nM; koff [9]: 0.00045 s⁻¹; kon [9]: 6.5e+06 M⁻¹ s⁻¹; binding result [10]: no binding (tested: 0.25-1 nM PDGF); binding result [11]: no binding (tested: 0.25-1 nM PDGF); IC50, inhibition of PDGF-BB induced human mesangial cell proliferation (BrdU incorporation) [4]: 0.0134 nM; fold reduction in binding against PDGF-BB [12]: ~3 fold
